Assay results reported in the supplement of paper PMC11246515.
± gives the standard deviation of the averaged measurements.

Test: total protein half-life in vivo (active degradation + dilution); higher = more stable protein
[1] = E. coli NCM3722 delta-clpP delta-lon delta-hslV, growth: N-lim chemostat, doubling time 6 h
[2] = E. coli NCM3722 delta-clpP, growth: N-lim chemostat, doubling time 6 h
[3] = E. coli NCM3722 delta-hslV, growth: N-lim chemostat, doubling time 6 h
[4] = E. coli NCM3722 delta-lon, growth: N-lim chemostat, doubling time 6 h
[5] = E. coli NCM3722 delta-smpB, growth: N-lim chemostat, doubling time 6 h
[6] = wild type E. coli NCM3722, growth: C-lim chemostat, doubling time 3 h
[7] = wild type E. coli NCM3722, growth: C-lim chemostat, doubling time 6 h
[8] = wild type E. coli NCM3722, growth: C-lim chemostat, doubling time 12 h
[9] = wild type E. coli NCM3722, growth: N-lim chemostat, doubling time 6 h
[10] = wild type E. coli NCM3722, growth: N-lim chemostat, doubling time 12 h
[11] = wild type E. coli NCM3722, growth: P-lim chemostat, doubling time 6 h
[12] = wild type E. coli NCM3722, growth: P-lim chemostat, doubling time 12 h

Sequence | total protein half-life in vivo [1] | total protein half-life in vivo [2] | total protein half-life in vivo [3] | total protein half-life in vivo [4] | total protein half-life in vivo [5] | total protein half-life in vivo [6] | total protein half-life in vivo [7] | total protein half-life in vivo [8] | total protein half-life in vivo [9] | total protein half-life in vivo [10] | total protein half-life in vivo [11] | total protein half-life in vivo [12]
MTKMSRYALITALAMFLAGCVGQREPAPVEEVKPAPEQPAEPQQPVPTVPSVPTIPQQPGPIEHEDQTAPPAPHIRHYDWNGAMQPMVSKMLGADGVTAGSVLLVDSVNNRTNGSLNAAEATETLRNALANNGKFTLVSAQQLSMAKQQLGLSPQDSLGTRSKAIGIARNVGAHYVLYSSASGNVNAPTLQMQLMLVQTGEIIWSGKGAVSQQ [P0AB38] | 5.22 ± 0.26 h | 5.7 ± 0.39 h | 6.59 ± 0.23 h | 6.43 ± 0.46 h | 6.495 ± 0.062 h | 3.38 ± 0.095 h | 6.19 ± 0.46 h | 10.9 ± 0.91 h | 6.102 ± 0.019 h | 12.3 ± 0.41 h | 5.94 ± 0.24 h | 11.7 ± 1.2 h
MTKSELIERLATQQSHIPAKTVEDAVKEMLEHMASTLAQGERIEIRGFGSFSLHYRAPRTGRNPKTGDKVELEGKYVPHFKPGKELRDRANIYG [P0A6Y1] | 6.88 ± 0.81 h | 5.26 ± 0.3 h | 5.99 ± 1.1 h | 6.3 ± 0.4 h | 4.64 ± 0.21 h | 2.47 ± 0.093 h | 4.3 ± 0.44 h | 6.05 ± 0.37 h | 4.71 ± 0.18 h | 8.31 ± 2.4 h | 2.62 ± 0.24 h | 5.3658 ± 0.0042 h
MTKVLLSHPPRPASHNSSRAMVWVRKNLFSSWSNSLLTIGCIWLMWELIPPLLNWAFLQANWVGSTRADCTKAGACWVFIHERFGQFMYGLYPHDQRWRINLALLIGLVSIAPMFWKILPHRGRYIAAWAVIYPLIVWWLMYGGFFALERVETRQWGGLTLTLIIASVGIAGALPWGILLALGRRSHMPIVRILSVIFIEFWRGVPLITVLFMSSVMLPLFMAEGTSIDKLIRALVGVILFQSAYVAEVVRGGLQALPKGQYEAAESLALGYWKTQGLVILPQALKLVIPGLVNTIIALFKDTSLVIIIGLFDLFSSVQQATVDPAWLGMSTEGYVFAALIYWIFCFSMSRYSQYLEKRFNTGRTPH |  |  |  |  |  |  |  |  | 4.17 h |  |  | 
MTLEWWFAYLLTSIILSLSPGSGAINTMTTSLNHGYRGAVASIAGLQTGLAIHIVLVGVGLGTLFSRSVIAFEVLKWAGAAYLIWLGIQQWRAAGAIDLKSLASTQSRRHLFQRAVFVNLTNPKSIVFLAALFPQFIMPQQPQLMQYIVLGVTTIVVDIIVMIGYATLAQRIALWIKGPKQMKALNKIFGSLFMLVGALLASARHA [P0AG34] |  | 2.02 h | 1.51 h |  | 1.73 ± 0.21 h | 0.913 h | 1.47 h | 2.28 h | 2.62 h |  |  | 3.7 h
MTLFTTLLVLIFERLFKLGEHWQLDHRLEAFFRRVKHFSLGRTLGMTIIAMGVTFLLLRALQGVLFNVPTLLVWLLIGLLCIGAGKVRLHYHAYLTAASRNDSHARATMAGELTMIHGVPAGCDEREYLRELQNALLWINFRFYLAPLFWLIVGGTWGPVTLMGYAFLRAWQYWLARYQTPHHRLQSGIDAVLHVLDWVPVRLAGVVYALIGHGEKALPAWFASLGDFHTSQYQVLTRLAQFSLAREPHVDKVETPKAAVSMAKKTSFVVVVVIALLTIYGALV [P0AE14] | 6.33 ± 0.16 h | 6.29 h |  | 5.3 ± 0.39 h | 6.02 ± 0.49 h | 3.246 ± 0.031 h | 5.626 ± 0.0074 h | 13.1 ± 3.9 h | 6.63 ± 0.9 h | 14 ± 2.6 h |  | 
MTLLALGINHKTAPVSLRERVSFSPDKLDQALDSLLAQPMVQGGVVLSTCNRTELYLSVEEQDNLQEALIRWLCDYHNLNEEDLRKSLYWHQDNDAVSHLMRVASGLDSLVLGEPQILGQVKKAFADSQKGHMKASELERMFQKSFSVAKRVRTETDIGASAVSVAFAACTLARQIFESLSTVTVLLVGAGETIELVARHLREHKVQKMIIANRTRERAQILADEVGAEVIALSDIDERLREADIIISSTASPLPIIGKGMVERALKSRRNQPMLLVDIAVPRDVEPEVGKLANAYLYSVDDLQSIISHNLAQRKAAAVEAETIVAQETSEFMAWLRAQSASETIREYRSQAEQVRDELTAKALAALEQGGDAQAIMQDLAWKLTNRLIHAPTKSLQQAARDGDNERLNILRDSLGLE [P0A6X1] | 4.33 ± 0.069 h | 2.95 ± 0.26 h | 1.55 h | 1.59 ± 0.083 h | 1.51 ± 0.25 h | 1.03 h | 1.84 ± 0.15 h | 2.76 ± 0.68 h | 1.35 ± 0.31 h | 2.08 h | 1.29 ± 0.43 h | 1.9 h
MTLLGTALRPAATRVMLLGSGELGKEVAIECQRLGVEVIAVDRYADAPAMHVAHRSHVINMLDGDALRRVVELEKPHYIVPEIEAIATDMLIQLEEEGLNVVPCARATKLTMNREGIRRLAAEELQLPTSTYRFADSESLFREAVADIGYPCIVKPVMSSSGKGQTFIRSAEQLAQAWKYAQQGGRAGAGRVIVEGVVKFDFEITLLTVSAVDGVHFCAPVGHRQEDGDYRESWQPQQMSPLALERAQEIARKVVLALGGYGLFGVELFVCGDEVIFSEVSPRPHDTGMVTLISQDLSEFALHVRAFLGLPVGGIRQYGPAASAVILPQLTSQNVTFDNVQNAVGADLQIRLFGKPEIDGSRRLGVALATAESVVDAIERAKHAAGQVKVQG | 5.17 ± 0.51 h | 4.76 ± 0.66 h | 4.361 ± 0.017 h | 4.5 ± 0.32 h | 4.11 ± 0.3 h | 3.033 ± 0.014 h | 5.96 ± 0.31 h | 10.2 ± 0.59 h | 4.28 ± 0.2 h | 6.95 ± 0.21 h | 6.14 ± 0.1 h | 10.1 ± 0.19 h
MTLRTENLTVSYGTDKVLNDVSLSLPTGKITALIGPNGCGKSTLLNCFSRLLMPQSGTVFLGDNPINMLSSRQLARRLSLLPQHHLTPEGITVQELVSYGRNPWLSLWGRLSAEDNARVNVAMNQTRINHLAVRRLTELSGGQRQRAFLAMVLAQNTPVVLLDEPTTYLDINHQVDLMRLMGELRTQGKTVVAVLHDLNQASRYCDQLVVMANGHVMAQGTPEEVMTPGLLRTVFSVEAEIHPEPVSGRPMCLMR | 5.53 ± 0.17 h |  |  |  |  |  |  |  |  |  |  | 3.42 h
MTLSFVTRWRDELPETYTALSPTPLNNARLIWHNTELANTLSIPSSLFKNGAGVWGGEALLPGMSPLAQVYSGHQFGVWAGQLGDGRGILLGEQLLADGTTMDWHLKGAGLTPYSRMGDGRAVLRSTIRESLASEAMHYLGIPTTRALSIVTSDSPVYRETAEPGAMLMRVAPSHLRFGHFEHFYYRRESEKVRQLADFAIRHYWSHLADDEDKYRLWFSDVVARTASLIAQWQTVGFAHGVMNTDNMSLLGLTLDYGPFGFLDDYEPGFICNHSDHQGRYSFDNQPAVALWNLQRLAQTLSPFVAVDALNEALDSYQQVLLTHYGERMRQKLGFMTEQKEDNALLNELFSLMARERSDYTRTFRMLSLTEQHSAASPLRDEFIDRAAFDDWFARYRGRLQQDEVSDSERQQLMQSVNPALVLRNWLAQRAIEAAEKGDMTELHRLHEALRNPFSDRDDDYVSRPPDWGKRLEVSCSS | 4.63 ± 0.32 h | 4.26 ± 0.67 h | 3.15 ± 0.38 h | 3.26 ± 0.13 h | 2.8 ± 0.21 h | 2.72 ± 0.068 h | 4.57 ± 0.15 h | 8.02 ± 1.4 h | 2.971 ± 0.012 h | 4.63 ± 0.64 h | 4.72 ± 0.71 h | 8.293 ± 0.077 h
MTLTLNRQLLTSRQILVAFSGGLDSTVLLHQLVQWRTENPGVALRAIHVHHGLSANADAWVTHCENVCQQWQVPLVVERVQLAQEGLGIEAQARQARYQAFARTLLPGEVLVTAQHLDDQCETFLLALKRGSGPAGLSAMAEVSEFAGTRLIRPLLARTRGELVQWARQYDLRWIEDESNQDDSYDRNFLRLRVVPLLQQRWPHFAEATARSAALCAEQESLLDELLADDLAHCQSPQGTLQIVPMLAMSDARRAAIIRRWLAGQNAPMPSRDALVRIWQEVALAREDASPCLRLGAFEIRRYQSQLWWIKSVTGQSENIVPWQTWLQPLELPAGLGSVQLNAGGDIRPPRADEAVSVRFKAPGLLHIVGRNGGRKLKKIWQELGVPPWLRDTTPLLFYGETLIAAAGVFVTQEGVAEGENGVSFVWQKTLS | 5.68 ± 0.23 h | 5.01 ± 0.08 h | 4.74 ± 0.42 h | 4.89 ± 0.25 h | 4.44 ± 0.24 h |  | 5.78 ± 0.29 h | 11 ± 0.83 h | 5.27 ± 0.28 h | 8.42 ± 0.81 h | 6.31 ± 0.15 h | 11.6 ± 1 h
MTLTRREFIKHSGIAAGALVVTSAAPLPAWAEEKGGKILTAGRWGAMNVEVKDGKIVSSTGALAKTIPNSLQSTAADQVHTTARIQHPMVRKSYLDNPLQPAKGRGEDTYVQVSWEQALKLIHEQHDRIRKANGPSAIFAGSYGWRSSGVLHKAQTLLQRYMNLAGGYSGHSGDYSTGAAQVIMPHVVGSVEVYEQQTSWPLILENSQVVVLWGMNPLNTLKIAWSSTDEQGLEYFHQLKKSGKPVIAIDPIRSETIEFFDDNATWIAPNMGTDVALMLGIAHTLMTQGKHDKVFLEKYTTGYPQFEEYLTGKSDNTPKSAVWAAEITGVPEAQIVKLAELMAANRTMLMAGWGIQRQQYGEQKHWMLVTLAAMLGQIGTPGGGFGFSYHYSNGGNPTRVGGVLPEMSAAIAGHASEAADDGGMTAIPVARIVDALENPGGKYQHNGKEQTYPNIKMIWWAGGGNFTHHQDTNRLIKAWQKPEMIVVSECYWTAAAKHADIVLPITTSFERNDLTMTGDYSNQHIVPMKQAVAPQFEARNDFDVFADLAELLKPGGKEIYTEGKDEMAWLKFFYDAAQKGARAQRVTMPMFNAFWQQNKLIEMRHSEKNEQYVRYGDFRADPVKNALGTPSGKIEIYSKTLEKFGYKDCPAHPTWLAPDEWKGTADEKQLQLLTAHPAHRLHSQLNYAELRKKYAIADREPITIHTEDAARFGIANGDLVRVWNKRGQILTGAVVTDGIKKGVVCVHEGAWPDLENGLCKNGSANVLTADIPSSQLANACAGNSALVYIEKYTGNAPKLTAFDQPAVQA | 5.67 ± 0.3 h |  |  | 5.13 h |  |  | 4.75 ± 0.64 h | 11.5 ± 6.1 h |  | 8.13 h |  | 
MTLWINGDWITGQGASRVKRNPVSGEVLWQGNDADAAQVEQACRAARAAFPRWARLSFAERHAVVERFAALLESNKAELTAIIARETGKPRWEAATEVTAMINKIAISIKAYHVRTGEQRSEMPDGAASLRHRPHGVLAVFGPYNFPGHLPNGHIVPALLAGNTIIFKPSELTPWSGEAVMRLWQQAGLPPGVLNLVQGGRETGQALSALEDLDGLLFTGSANTGYQLHRQLSGQPEKILALEMGGNNPLIIDEVADIDAAVHLTIQSAFVTAGQRCTCARRLLLKSGAQGDAFLARLVAVSQRLTPGNWDDEPQPFIGGLISEQAAQQVVTAWQQLEAMGGRPLLAPRLLQAGTSLLTPGIIEMTGVAGVPDEEVFGPLLRVWRYDTFDEAIRMANNTRFGLSCGLVSPEREKFDQLLLEARAGIVNWNKPLTGAASTAPFGGIGASGNHRPSAWYAADYCAWPMASLESDSLTLPATLNPGLDFSDEVVR | 5.21 ± 0.42 h | 3.93 ± 0.27 h | 3.9 ± 0.23 h | 4.05 ± 0.23 h | 3.9 ± 0.34 h | 3.01 ± 0.28 h | 5.5 ± 0.65 h | 10.05 ± 0.096 h | 3.67 ± 0.23 h | 6.26 ± 0.56 h | 5.78 ± 0.31 h | 12.1 ± 1.7 h
